Columns and labels:
[1] = target: wild-type SecA-SecYEG translocase (SecA bound to SecYEG-inverted inner membrane vesicles) (E. coli) (UniProt P10408); assay: co-sedimentation
[2] = target: SecA(LCt) (locked C-tail) bound to SecYEG-inverted membrane vesicles (E. coli) (UniProt P10408); assay: co-sedimentation
[3] = target: native PhoA (E. coli) [phosphatase: P00634]; assay: native MS
[4] = target: wild-type SecA-SecYEG translocase (SecA bound to SecYEG-inverted inner membrane vesicles) (E. coli, UniProt P10408;P0AGA2;P0AG96;P0AG99); assay: co-sedimentation
Sequence of wild-type SecA-SecYEG translocase (SecA bound to SecYEG-inverted inner membrane vesicles) (P10408 whole entry, chain 1 of 4): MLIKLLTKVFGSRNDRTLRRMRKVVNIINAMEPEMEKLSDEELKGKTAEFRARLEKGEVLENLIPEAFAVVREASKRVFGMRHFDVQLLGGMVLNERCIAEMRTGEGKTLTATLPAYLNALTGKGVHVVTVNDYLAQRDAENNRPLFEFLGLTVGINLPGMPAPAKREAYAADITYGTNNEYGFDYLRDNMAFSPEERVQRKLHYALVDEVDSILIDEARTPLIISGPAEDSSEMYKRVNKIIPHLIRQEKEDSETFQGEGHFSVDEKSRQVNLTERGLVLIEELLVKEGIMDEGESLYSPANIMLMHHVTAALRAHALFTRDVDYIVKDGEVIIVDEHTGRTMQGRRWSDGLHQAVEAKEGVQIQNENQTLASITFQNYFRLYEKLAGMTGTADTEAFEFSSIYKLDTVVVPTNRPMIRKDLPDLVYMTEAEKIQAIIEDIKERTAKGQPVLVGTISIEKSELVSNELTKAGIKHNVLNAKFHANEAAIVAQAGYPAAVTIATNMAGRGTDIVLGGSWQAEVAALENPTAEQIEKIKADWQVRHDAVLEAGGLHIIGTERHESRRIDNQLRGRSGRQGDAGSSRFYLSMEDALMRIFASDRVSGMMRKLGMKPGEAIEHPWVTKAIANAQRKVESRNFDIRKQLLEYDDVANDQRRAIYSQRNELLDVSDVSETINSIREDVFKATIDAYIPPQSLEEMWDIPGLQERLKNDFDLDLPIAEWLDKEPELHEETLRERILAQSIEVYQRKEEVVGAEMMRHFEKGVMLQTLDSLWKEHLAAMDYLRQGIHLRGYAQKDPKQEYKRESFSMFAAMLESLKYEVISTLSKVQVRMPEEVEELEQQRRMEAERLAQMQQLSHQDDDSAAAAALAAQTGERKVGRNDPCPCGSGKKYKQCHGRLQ
Sequence of wild-type SecA-SecYEG translocase (SecA bound to SecYEG-inverted inner membrane vesicles) (P0AGA2 whole entry, chain 2 of 4): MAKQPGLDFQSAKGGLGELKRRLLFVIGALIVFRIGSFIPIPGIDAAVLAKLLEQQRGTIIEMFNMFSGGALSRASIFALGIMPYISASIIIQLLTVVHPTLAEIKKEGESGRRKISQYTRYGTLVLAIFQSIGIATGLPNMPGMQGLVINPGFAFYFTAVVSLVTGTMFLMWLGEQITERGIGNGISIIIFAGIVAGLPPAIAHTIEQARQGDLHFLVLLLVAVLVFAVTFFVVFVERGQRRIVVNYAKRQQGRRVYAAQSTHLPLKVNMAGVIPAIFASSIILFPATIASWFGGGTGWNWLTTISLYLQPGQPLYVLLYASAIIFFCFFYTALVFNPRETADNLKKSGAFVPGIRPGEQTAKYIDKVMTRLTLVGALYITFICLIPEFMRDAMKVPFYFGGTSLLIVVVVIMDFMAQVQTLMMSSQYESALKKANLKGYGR
Sequence of wild-type SecA-SecYEG translocase (SecA bound to SecYEG-inverted inner membrane vesicles) (P0AG96 whole entry, chain 3 of 4): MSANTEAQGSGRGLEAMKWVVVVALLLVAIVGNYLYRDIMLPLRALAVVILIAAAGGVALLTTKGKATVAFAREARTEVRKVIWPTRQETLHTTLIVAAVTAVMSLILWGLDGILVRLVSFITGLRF
Sequence of wild-type SecA-SecYEG translocase (SecA bound to SecYEG-inverted inner membrane vesicles) (P0AG99 whole entry, chain 4 of 4): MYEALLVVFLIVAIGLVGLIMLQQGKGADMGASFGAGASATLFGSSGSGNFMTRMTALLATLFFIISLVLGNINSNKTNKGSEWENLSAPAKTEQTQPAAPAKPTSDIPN

Sequence of wild-type SecA-SecYEG translocase (SecA bound to SecYEG-inverted inner membrane vesicles) (E. coli) (P10408 whole entry, chain 1 of 4): as the sequence (P10408 whole entry, chain 1 of 4) above
Sequence of wild-type SecA-SecYEG translocase (SecA bound to SecYEG-inverted inner membrane vesicles) (E. coli) (P0AGA2 whole entry, chain 2 of 4, further chain): as the sequence (P0AGA2 whole entry, chain 2 of 4) above
Sequence of wild-type SecA-SecYEG translocase (SecA bound to SecYEG-inverted inner membrane vesicles) (E. coli) (P0AG96 whole entry, chain 3 of 4, further chain): as the sequence (P0AG96 whole entry, chain 3 of 4) above
Sequence of wild-type SecA-SecYEG translocase (SecA bound to SecYEG-inverted inner membrane vesicles) (E. coli) (P0AG99 whole entry, chain 4 of 4, further chain): as the sequence (P0AG99 whole entry, chain 4 of 4) above
Sequence of PhoA (mature domain of proPhoA, signal peptide-less, urea-purified) (P00634 22-471): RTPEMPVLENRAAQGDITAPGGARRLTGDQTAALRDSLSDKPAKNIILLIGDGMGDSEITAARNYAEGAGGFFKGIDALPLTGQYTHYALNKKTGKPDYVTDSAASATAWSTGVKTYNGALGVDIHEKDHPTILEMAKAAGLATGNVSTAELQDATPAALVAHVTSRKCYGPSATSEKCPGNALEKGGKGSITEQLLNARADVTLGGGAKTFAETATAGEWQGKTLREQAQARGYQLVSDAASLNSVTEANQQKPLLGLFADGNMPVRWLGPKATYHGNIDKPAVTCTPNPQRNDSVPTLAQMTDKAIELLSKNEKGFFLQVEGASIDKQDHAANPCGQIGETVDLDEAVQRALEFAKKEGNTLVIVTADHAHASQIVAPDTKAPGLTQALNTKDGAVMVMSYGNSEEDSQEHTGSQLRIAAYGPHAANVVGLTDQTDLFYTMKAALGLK
Sequence of Lpp(noMTS) (P69776 21-78): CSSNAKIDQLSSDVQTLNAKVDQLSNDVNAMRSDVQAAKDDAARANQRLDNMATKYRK
Sequence of HdeA(noMTS) (P0AES9 22-110): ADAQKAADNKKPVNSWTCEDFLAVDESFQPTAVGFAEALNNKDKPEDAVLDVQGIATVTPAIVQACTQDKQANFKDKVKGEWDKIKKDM
Sequence of SecA(LCt) (locked C-tail) bound to SecYEG-inverted membrane vesicles (E. coli) (P10408 whole entry, chain 1 of 4): as the sequence (P10408 whole entry, chain 1 of 4) above
Sequence of SecA(LCt) (locked C-tail) bound to SecYEG-inverted membrane vesicles (E. coli) (P0AGA2 whole entry, chain 2 of 4, further chain): as the sequence (P0AGA2 whole entry, chain 2 of 4) above
Sequence of SecA(LCt) (locked C-tail) bound to SecYEG-inverted membrane vesicles (E. coli) (P0AG96 whole entry, chain 3 of 4, further chain): as the sequence (P0AG96 whole entry, chain 3 of 4) above
Sequence of SecA(LCt) (locked C-tail) bound to SecYEG-inverted membrane vesicles (E. coli) (P0AG99 whole entry, chain 4 of 4, further chain): as the sequence (P0AG99 whole entry, chain 4 of 4) above
Sequence of YncJ(noMTS) (P64459 23-76): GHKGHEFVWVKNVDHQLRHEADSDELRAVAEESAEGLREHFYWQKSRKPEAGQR

Molecule | Kd [1] [µM] | further results
HdeA(noMTS) (from UniProt P0AES9 22-110) (natural protein) | > 20 | 
Lpp(noMTS) (from UniProt P69776 21-78) (natural protein) | > 20 | 
PhoA (mature domain of proPhoA, signal peptide-less, urea-purified) (from UniProt P00634 22-471) (natural protein) |  | fold reduction of affinity against the wild-type translocase [2]: 18 fold
YncJ(noMTS) (from UniProt P64459 23-76) (natural protein) | > 20 | 
native PhoA (from UniProt P00634 22-471) (enzyme) |  | stoichiometry N [3]: 2
MKQSTIALALLPLLFTPVTKARTPEMPVLE [signal peptide of proPhoA, proPhoA(1–30)] |  | Kd [4]: ~3 µM
